# Patent publication US20260242735A1 (UNIVERSIT T BASEL, published 2026)
# B1: Refmab #5 (antibody, V domains shown)
# VH: QVQLVQSGAEVKKPGASVKVSCKASGYTFTNYDINWVRQAPGQGLEWIGWIYPGDGSTKYNEKFKAKATLTADTSTSTAYMELRSLRSDDTAVYYCASGYEDAMDYWGQGTTVTVSS
# VL: DIQMTQSPSSLSASVGDRVTINCKASQDINSYLSWFQQKPGKAPKTLIYRANRLVDGVPSRFSGSGSGQDYTLTISSLQPEDFATYYCLQYDEFPLTFGGGTKVEIK
# notes: Full-length format is human IgG1 Fc silent (PG-LALA); also made as Fab; The alanine scan used IgG or Fab
# B2: Refmab #6 (antibody, V domains shown)
# VH: QVQLQQPGAEVVKPGASVKMSCKASGYTFTSYYIHWIKQTPGQGLEWVGVIYPGNDDISYNQKFQGKATLTADKSSTTAYMQLSSLTSEDSAVYYCAREVRLRYFDVWGQGTTVTVSS
# VL: EIVLTQSPGSLAVSPGERVTMSCKSSQSVFFSSSQKNYLAWYQQIPGQSPRLLIYWASTRESGVPDRFTGSGSGTDFTLTISSVQPEDLAIYYCHQYLSSRTFGQGTKLEIK
# notes: as for B1
# Key:
# Assay in all cases: alanine scan, flow cytometry;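 also: HEK293-T cells transiently expressing single-residue alanine mutants of CD33 (alanine swapped to serine), antibody binding read by fluorescence in duplicate, background-subtracted, expressed relative to wild-type CD33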
# human CD33 P201A = human CD33 P201A (human, UniProt P20138 18-364)
# Protocol: (§1) An alanine scan on human CD33 was performed to the determine the residues on CD33 that are involved in binding to the antibodies investigated. […] Briefly, a mutation library of CD33 was created by high-throughput, site-directed mutagenesis. Each residue was individually mutated to alanine, with alanine codons mutated to serine. The mutant library was arrayed in 384-well microplates and transiently transfected into HEK293-T. Following transfection, cells were incubated with the indicated antibodies (IgG or Fab) at concentrations pre-determined using an independent immunofluorescence titration curve on wild type CD33. […] Binding of each antibody to each mutant clone was determined in duplicates. For each point, background fluorescence was subtracted from the raw data, which were then normalized to antibody reactivity with wild type CD33.
# (§2) Critical residues for antibody binding (outlined in dark grey) were residues whose mutations led to a binding of the test Abs of less than 20%. Additional secondary residues (outlined in light grey) were identified that led to a binding of the test Abs of between 20 and 40% as compared to the wild type CD33.
# human CD33 R202A = human CD33 R202A (human, UniProt P20138 18-364)
# human CD33 R202A, sequence (P20138 18-364 R202A limits assumed): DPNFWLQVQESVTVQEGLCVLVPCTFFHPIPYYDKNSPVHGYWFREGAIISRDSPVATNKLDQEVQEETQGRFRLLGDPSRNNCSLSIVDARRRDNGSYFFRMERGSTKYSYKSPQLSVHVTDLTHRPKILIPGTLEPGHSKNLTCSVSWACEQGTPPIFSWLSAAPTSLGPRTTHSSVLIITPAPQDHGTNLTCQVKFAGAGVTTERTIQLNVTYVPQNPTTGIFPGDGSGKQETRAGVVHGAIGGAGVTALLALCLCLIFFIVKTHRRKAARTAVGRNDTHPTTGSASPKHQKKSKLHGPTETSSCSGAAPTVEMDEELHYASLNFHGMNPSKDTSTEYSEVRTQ
# Protocol: as §1, §2
# human CD33 Q204A = human CD33 Q204A (human, UniProt P20138 18-364)
# human CD33 Q204A, sequence (P20138 18-364 Q204A limits assumed): as the sequence (P20138 18-364 R202A limits assumed) above, with A185R, Q187A counted along it
# Protocol: as §1, §2
# human CD33 D205A = human CD33 D205A (human, UniProt P20138 18-364)
# Protocol: as §1, §2
# human CD33 H206A = human CD33 H206A (human, UniProt P20138 18-364)
# human CD33 H206A, sequence (P20138 18-364 H206A limits assumed): as the sequence (P20138 18-364 R202A limits assumed) above, with A185R, H189A counted along it
# Protocol: as §1, §2
# human CD33 N209A = human CD33 N209A (human, UniProt P20138 18-364)
# Protocol: as §1, §2
# human CD33 Q213A = human CD33 Q213A (human, UniProt P20138 18-364)
# Protocol: as §1, §2
# human CD33 K215A = human CD33 K215A (human, UniProt P20138 18-364)
# Protocol: as §1, §2
# human CD33 A219S = human CD33 A219S (human, UniProt P20138 18-364)
# human CD33 A219S, sequence (P20138 18-364 A219S limits assumed): as the sequence (P20138 18-364 R202A limits assumed) above, with A185R, A202S counted along it
# Protocol: as §1, §2
# human CD33 G220A = human CD33 G220A (human, UniProt P20138 18-364)
# Protocol: as §1, §2
# human CD33 V221A = human CD33 V221A (human, UniProt P20138 18-364)
# Protocol: as §1, §2
# human CD33 T223A = human CD33 T223A (human, UniProt P20138 18-364)
# Protocol: as §1, §2
# human CD33 E224A = human CD33 E224A (human, UniProt P20138 18-364)
# Protocol: as §1, §2
# human CD33 R225A = human CD33 R225A (human, UniProt P20138 18-364)
# human CD33 R225A, sequence (P20138 18-364 R225A limits assumed): as the sequence (P20138 18-364 R202A limits assumed) above, with A185R, R208A counted along it
# Protocol: as §1, §2
# human CD33 T226A = human CD33 T226A (human, UniProt P20138 18-364)
# human CD33 T226A, sequence (P20138 18-364 T226A limits assumed): as the sequence (P20138 18-364 R202A limits assumed) above, with A185R, T209A counted along it
# Protocol: as §1, §2
# human CD33 I227A = human CD33 I227A (human, UniProt P20138 18-364)
# human CD33 I227A, sequence (P20138 18-364 I227A limits assumed): as the sequence (P20138 18-364 R202A limits assumed) above, with A185R, I210A counted along it
# Protocol: as §1, §2
# human CD33 Q228A = human CD33 Q228A (human, UniProt P20138 18-364)
# Protocol: as §1, §2
# human CD33 V231A = human CD33 V231A (human, UniProt P20138 18-364)
# Protocol: as §1, §2
# human CD33 T232A = human CD33 T232A (human, UniProt P20138 18-364)
# Protocol: as §1, §2
# human CD33 Y233A = human CD33 Y233A (human, UniProt P20138 18-364)
# Protocol: as §1, §2
# human CD33 V234A = human CD33 V234A (human, UniProt P20138 18-364)
# Protocol: as §1, §2
# human CD33 P235A = human CD33 P235A (human, UniProt P20138 18-364)
# Protocol: as §1, §2
# human CD33 T239A = human CD33 T239A (human, UniProt P20138 18-364)
# human CD33 T239A, sequence (P20138 18-364 T239A limits assumed): as the sequence (P20138 18-364 R202A limits assumed) above, with A185R, T222A counted along it
# Protocol: as §1, §2
# human CD33 V196A = human CD33 V196A (human, UniProt P20138 18-364)
# Protocol: as §1, §2
# human CD33 G241A = human CD33 G241A (human, UniProt P20138 18-364)
# human CD33 G241A, sequence (P20138 18-364 G241A limits assumed): as the sequence (P20138 18-364 R202A limits assumed) above, with A185R, G224A counted along it
# Protocol: as §1, §2
# human CD33 I242A = human CD33 I242A (human, UniProt P20138 18-364)
# Protocol: as §1, §2
# human CD33 P244A = human CD33 P244A (human, UniProt P20138 18-364)
# Protocol: as §1, §2
# human CD33 G245A = human CD33 G245A (human, UniProt P20138 18-364)
# Protocol: as §1, §2
# human CD33 G247A = human CD33 G247A (human, UniProt P20138 18-364)
# Protocol: as §1, §2
# human CD33 K250A = human CD33 K250A (human, UniProt P20138 18-364)
# Protocol: as §1, §2
# human CD33 L197A = human CD33 L197A (human, UniProt P20138 18-364)
# human CD33 L197A, sequence (P20138 18-364 L197A limits assumed): as the sequence (P20138 18-364 R202A limits assumed) above, with L180A, A185R counted along it
# Protocol: as §1, §2
# human CD33 E252A = human CD33 E252A (human, UniProt P20138 18-364)
# Protocol: as §1, §2
# human CD33 R254A = human CD33 R254A (human, UniProt P20138 18-364)
# Protocol: as §1, §2
# human CD33 G256A = human CD33 G256A (human, UniProt P20138 18-364)
# Protocol: as §1, §2
# human CD33 V258A = human CD33 V258A (human, UniProt P20138 18-364)
# Protocol: as §1, §2
# human CD33 G260A = human CD33 G260A (human, UniProt P20138 18-364)
# human CD33 G260A, sequence (P20138 18-364 G260A limits assumed): as the sequence (P20138 18-364 R202A limits assumed) above, with A185R, G243A counted along it
# Protocol: as §1, §2
# human CD33 I198A = biological target: T1, human CD33 I198A (human, UniProt P20138 18-364)
# T1 construct: the leading token is not explained
# T1 sequence (P20138 18-364 I198A limits assumed): as the sequence (P20138 18-364 R202A limits assumed) above, with I181A, A185R counted along it
# Protocol: as §1, §2
# human CD33 A261S = human CD33 A261S (human, UniProt P20138 18-364)
# Protocol: as §1, §2
# human CD33 I262A = human CD33 I262A (human, UniProt P20138 18-364)
# human CD33 I262A, sequence (P20138 18-364 I262A limits assumed): as the sequence (P20138 18-364 R202A limits assumed) above, with A185R, I245A counted along it
# Protocol: as §1, §2
# human CD33 I199A = human CD33 I199A (human, UniProt P20138 18-364)
# human CD33 I199A, sequence (P20138 18-364 I199A limits assumed): as the sequence (P20138 18-364 R202A limits assumed) above, with I182A, A185R counted along it
# Protocol: as §1, §2
# human CD33 T200A = human CD33 T200A (human, UniProt P20138 18-364)
# Protocol: as §1, §2
binder,measurement,setting,value
B1,Mean % WT Binding,human CD33 P201A,111 % WT binding
same,Mean % WT Binding,human CD33 R202A,123 % WT binding
same,Mean % WT Binding,human CD33 Q204A,103 % WT binding
same,Mean % WT Binding,human CD33 D205A,12.3 % WT binding
same,Mean % WT Binding,human CD33 H206A,108 % WT binding
same,Mean % WT Binding,human CD33 N209A,88.1 % WT binding
same,Mean % WT Binding,human CD33 Q213A,128 % WT binding
same,Mean % WT Binding,human CD33 K215A,103 % WT binding
same,Mean % WT Binding,human CD33 A219S,93.7 % WT binding
same,Mean % WT Binding,human CD33 G220A,93.5 % WT binding
same,Mean % WT Binding,human CD33 V221A,116 % WT binding
same,Mean % WT Binding,human CD33 T223A,115 % WT binding
same,Mean % WT Binding,human CD33 E224A,97.1 % WT binding
same,Mean % WT Binding,human CD33 R225A,124 % WT binding
same,Mean % WT Binding,human CD33 T226A,97.9 % WT binding
same,Mean % WT Binding,human CD33 I227A,105 % WT binding
same,Mean % WT Binding,human CD33 Q228A,129 % WT binding
same,Mean % WT Binding,human CD33 V231A,88.2 % WT binding
same,Mean % WT Binding,human CD33 T232A,81.5 % WT binding
same,Mean % WT Binding,human CD33 Y233A,89.5 % WT binding
same,Mean % WT Binding,human CD33 V234A,115 % WT binding
same,Mean % WT Binding,human CD33 P235A,102 % WT binding
same,Mean % WT Binding,human CD33 T239A,107 % WT binding
same,Mean % WT Binding,human CD33 V196A,84.5 % WT binding
same,Mean % WT Binding,human CD33 G241A,109 % WT binding
same,Mean % WT Binding,human CD33 I242A,81.8 % WT binding
same,Mean % WT Binding,human CD33 P244A,107 % WT binding
same,Mean % WT Binding,human CD33 G245A,110 % WT binding
same,Mean % WT Binding,human CD33 G247A,85.6 % WT binding
same,Mean % WT Binding,human CD33 K250A,85.7 % WT binding
same,Mean % WT Binding,human CD33 L197A,102 % WT binding
same,Mean % WT Binding,human CD33 E252A,114 % WT binding
same,Mean % WT Binding,human CD33 R254A,94.7 % WT binding
same,Mean % WT Binding,human CD33 G256A,87.6 % WT binding
same,Mean % WT Binding,human CD33 V258A,95.9 % WT binding
same,Mean % WT Binding,human CD33 G260A,102 % WT binding
same,Mean % WT Binding,human CD33 I198A,84.7 % WT binding
same,Mean % WT Binding,human CD33 A261S,79.8 % WT binding
same,Mean % WT Binding,human CD33 I262A,97.5 % WT binding
same,Mean % WT Binding,human CD33 I199A,132 % WT binding
same,Mean % WT Binding,human CD33 T200A,98.3 % WT binding
B2,Mean % WT Binding,human CD33 P201A,115 % WT binding
same,Mean % WT Binding,human CD33 R202A,92.2 % WT binding
same,Mean % WT Binding,human CD33 Q204A,108 % WT binding
same,Mean % WT Binding,human CD33 D205A,3.1 % WT binding
same,Mean % WT Binding,human CD33 H206A,98.3 % WT binding
same,Mean % WT Binding,human CD33 N209A,101 % WT binding
same,Mean % WT Binding,human CD33 Q213A,98 % WT binding
same,Mean % WT Binding,human CD33 K215A,85.6 % WT binding
same,Mean % WT Binding,human CD33 A219S,92 % WT binding
same,Mean % WT Binding,human CD33 G220A,99.8 % WT binding
same,Mean % WT Binding,human CD33 V221A,94.6 % WT binding
same,Mean % WT Binding,human CD33 T223A,110 % WT binding
same,Mean % WT Binding,human CD33 E224A,106 % WT binding
same,Mean % WT Binding,human CD33 R225A,104 % WT binding
same,Mean % WT Binding,human CD33 T226A,96.5 % WT binding
same,Mean % WT Binding,human CD33 I227A,88.1 % WT binding
same,Mean % WT Binding,human CD33 Q228A,100 % WT binding
same,Mean % WT Binding,human CD33 V231A,92.8 % WT binding
same,Mean % WT Binding,human CD33 T232A,79.6 % WT binding
same,Mean % WT Binding,human CD33 Y233A,103 % WT binding
same,Mean % WT Binding,human CD33 V234A,109 % WT binding
same,Mean % WT Binding,human CD33 P235A,84.3 % WT binding
same,Mean % WT Binding,human CD33 T239A,87.3 % WT binding
same,Mean % WT Binding,human CD33 V196A,116 % WT binding
same,Mean % WT Binding,human CD33 G241A,101 % WT binding
same,Mean % WT Binding,human CD33 I242A,99 % WT binding
same,Mean % WT Binding,human CD33 P244A,101 % WT binding
same,Mean % WT Binding,human CD33 G245A,91.8 % WT binding
same,Mean % WT Binding,human CD33 G247A,105 % WT binding
same,Mean % WT Binding,human CD33 K250A,98 % WT binding
same,Mean % WT Binding,human CD33 L197A,103 % WT binding
same,Mean % WT Binding,human CD33 E252A,108 % WT binding
same,Mean % WT Binding,human CD33 R254A,95.7 % WT binding
same,Mean % WT Binding,human CD33 G256A,108 % WT binding
same,Mean % WT Binding,human CD33 V258A,95.9 % WT binding
same,Mean % WT Binding,human CD33 G260A,97.2 % WT binding
same,Mean % WT Binding,human CD33 I198A,89.3 % WT binding
same,Mean % WT Binding,human CD33 A261S,56.7 % WT binding
same,Mean % WT Binding,human CD33 I262A,99.4 % WT binding
same,Mean % WT Binding,human CD33 I199A,106 % WT binding
same,Mean % WT Binding,human CD33 T200A,110 % WT binding
